# Reference: IntAct's records for PubMed 25910212
# B1: E3 ubiquitin-protein ligase Midline-1 (Homo sapiens), O15344 (parent)
# chain: METLESELTCPICLELFEDPLLLPCAHSLCFNCAHRILVSHCATNESVESITAFQCPTCRHVITLSQRGLDGLKRNVTLQNIIDRFQKASVSGPNSPSETRRERAFDANTMTSAEKVLCQFCDQDPAQDAVKTCVTCEVSYCDECLKATHPNKKPFTGHRLIEPIPDSHIRGLMCLEHEDEKVNMYCVTDDQLICALCKLVGRHRDHQVAALSERYDKLKQNLESNLTNLIKRNTELETLLAKLIQTCQHVEVNASRQEAKLTEECDLLIEIIQQRRQIIGTKIKEGKVMRLRKLAQQIANCKQCIERSASLISQAEHSLKENDHARFLQTAKNITERVSMATASSQVLIPEINLNDTFDTFALDFSREKKLLECLDYLTAPNPPTIREELCTASYDTITVHWTSDDEFSVVSYELQYTIFTGQANVVSLCNSADSWMIVPNIKQNHYTVHGLQSGTKYIFMVKAINQAGSRSSEPGKLKTNSQPFKLDPKSAHRKLKVSHDNLTVERDESSSKKSHTPERFTSQGSYGVAGNVFIDSGRHYWEVVISGSTWYAIGLAYKSAPKHEWIGKNSASWALCRCNNNWVVRHNSKEIPIEPAPHLRRVGILLDYDNGSIAFYDALNSIHLYTFDVAFAQPVCPTFTVWNKCLTIITGLPIPDHLDCTEQLP
# partner: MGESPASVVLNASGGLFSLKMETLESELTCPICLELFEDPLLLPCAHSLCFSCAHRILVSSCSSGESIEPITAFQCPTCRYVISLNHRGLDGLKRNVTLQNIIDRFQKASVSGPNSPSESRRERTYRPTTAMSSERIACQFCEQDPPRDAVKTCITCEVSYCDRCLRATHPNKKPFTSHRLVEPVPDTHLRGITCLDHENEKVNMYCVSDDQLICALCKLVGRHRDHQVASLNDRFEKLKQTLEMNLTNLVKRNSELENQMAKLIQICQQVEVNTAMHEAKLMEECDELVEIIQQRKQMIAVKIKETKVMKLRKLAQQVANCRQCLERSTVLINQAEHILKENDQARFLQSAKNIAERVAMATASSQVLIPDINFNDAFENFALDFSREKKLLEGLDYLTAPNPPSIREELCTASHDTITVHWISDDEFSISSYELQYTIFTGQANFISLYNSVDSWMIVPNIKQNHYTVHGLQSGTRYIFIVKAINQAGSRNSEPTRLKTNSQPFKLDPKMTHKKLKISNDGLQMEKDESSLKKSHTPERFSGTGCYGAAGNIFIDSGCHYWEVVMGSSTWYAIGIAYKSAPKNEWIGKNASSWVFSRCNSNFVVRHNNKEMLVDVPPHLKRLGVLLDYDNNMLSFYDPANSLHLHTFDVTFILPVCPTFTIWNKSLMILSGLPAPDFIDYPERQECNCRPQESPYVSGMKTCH
# B2: Progranulin (Homo sapiens), P28799 (parent)
# chain: MWTLVSWVALTAGLVAGTRCPDGQFCPVACCLDPGGASYSCCRPLLDKWPTTLSRHLGGPCQVDAHCSAGHSCIFTVSGTSSCCPFPEAVACGDGHHCCPRGFHCSADGRSCFQRSGNNSVGAIQCPDSQFECPDFSTCCVMVDGSWGCCPMPQASCCEDRVHCCPHGAFCDLVHTRCITPTGTHPLAKKLPAQRTNRAVALSSSVMCPDARSRCPDGSTCCELPSGKYGCCPMPNATCCSDHLHCCPQDTVCDLIQSKCLSKENATTDLLTKLPAHTVGDVKCDMEVSCPDGYTCCRLQSGAWGCCPFTQAVCCEDHIHCCPAGFTCDTQKGTCEQGPHQVPWMEKAPAHLSLPDPQALKRDVPCDNVSSCPSSDTCCQLTSGEWGCCPIPEAVCCSDHQHCCPQGYTCVAEGQCQRGSEIVAGLEKMPARRASLSHPRDIGCDQHTSCPVGQTCCPSLGGSWACCQLPHAVCCEDRQHCCPAGYTCNVKARSCEKEVVSAQPATFLARSPHVGVKDVECGEGHFCHDNQTCCRDNRQGWACCPYRQGVCCADRRHCCPAGFRCAARGTKCLRREAPRWDAPLRDPALRQLL
# partner: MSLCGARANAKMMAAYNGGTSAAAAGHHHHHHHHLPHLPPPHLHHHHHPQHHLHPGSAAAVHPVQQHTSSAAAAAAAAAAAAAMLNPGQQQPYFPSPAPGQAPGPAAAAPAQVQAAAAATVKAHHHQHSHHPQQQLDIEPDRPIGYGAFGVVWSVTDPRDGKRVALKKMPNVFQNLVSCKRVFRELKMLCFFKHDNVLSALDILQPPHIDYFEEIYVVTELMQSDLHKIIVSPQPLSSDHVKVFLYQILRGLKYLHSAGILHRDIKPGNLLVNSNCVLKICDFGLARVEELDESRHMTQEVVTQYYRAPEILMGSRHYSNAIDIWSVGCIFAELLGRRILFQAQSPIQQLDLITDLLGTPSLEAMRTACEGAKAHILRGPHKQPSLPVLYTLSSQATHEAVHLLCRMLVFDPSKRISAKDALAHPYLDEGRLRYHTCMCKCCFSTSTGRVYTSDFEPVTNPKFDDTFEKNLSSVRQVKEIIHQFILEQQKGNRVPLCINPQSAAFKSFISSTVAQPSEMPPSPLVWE
# B3: Bleomycin hydrolase (Homo sapiens), Q13867 (parent)
# chain: MSSSGLNSEKVAALIQKLNSDPQFVLAQNVGTTHDLLDICLKRATVQRAQHVFQHAVPQEGKPITNQKSSGRCWIFSCLNVMRLPFMKKLNIEEFEFSQSYLFFWDKVERCYFFLSAFVDTAQRKEPEDGRLVQFLLMNPANDGGQWDMLVNIVEKYGVIPKKCFPESYTTEATRRMNDILNHKMREFCIRLRNLVHSGATKGEISATQDVMMEEIFRVVCICLGNPPETFTWEYRDKDKNYQKIGPITPLEFYREHVKPLFNMEDKICLVNDPRPQHKYNKLYTVEYLSNMVGGRKTLYNNQPIDFLKKMVAASIKDGEAVWFGCDVGKHFNSKLGLSDMNLYDHELVFGVSLKNMNKAERLTFGESLMTHAMTFTAVSEKDDQDGAFTKWRVENSWGEDHGHKGYLCMTDEWFSEYVYEVVVDRKHVPEEVLAVLEQEPIILPAWDPMGALAE
# B4: Plakophilin-2 (Homo sapiens), Q99959-2 (parent)
# chain: MAAPGAPAEYGYIRTVLGQQILGQLDSSSLALPSEAKLKLAGSSGRGGQTVKSLRIQEQVQQTLARKGRSSVGNGNLHRTSSVPEYVYNLHLVENDFVGGRSPVPKTYDMLKAGTTATYEGRWGRGTAQYSSQKSVEERSLRHPLRRLEISPDSSPERAHYTHSDYQYSQRSQAGHTLHHQESRRAALLVPPRYARSEIVGVSRAGTTSRQRHFDTYHRQYQHGSVSDTVFDSIPANPALLTYPRPGTSRSMGNLLEKENYLTAGLTVGQVRPLVPLQPVTQNRASRSSWHQSSFHSTRTLREAGPSVAVDSSGRRAHLTVGQAAAGGSGNLLTERSTFTDSQLGNADMEMTLERAVSMLEADHMLPSRISAAATFIQHECFQKSEARKRVNQLRGILKLLQLLKVQNEDVQRAVCGALRNLVFEDNDNKLEVAELNGVPRLLQVLKQTRDLETKKQITGLLWNLSSNDKLKNLMITEALLTLTENIIIPFSGWPEGDYPKANGLLDFDIFYNVTGCLRNMSSAGADGRKAMRRCDGLIDSLVHYVRGTIADYQPDDKATENCVCILHNLSYQLEAELPEKYSQNIYIQNRNIQTDNNKSIGCFGSRSRKVKEQYQDVPMPEEKSNPKGVEWLWHSIVIRMYLSLIAKSVRNYTQEASLGALQNLTAGSGPMPTSVAQTVVQKESGLQHTRKMLHVGDPSVKKTAISLLRNLSRNLSLQNEIAKETLPDLVSIIPDTVPSTDLLIETTASACYTLNNIIQNSYQNARDLLNTGGIQKIMAISAGDAYASNKASKAASVLLYSLWAHTELHHAYKKAQFKKTDFVNSRTAKAYHSLKD
# partner: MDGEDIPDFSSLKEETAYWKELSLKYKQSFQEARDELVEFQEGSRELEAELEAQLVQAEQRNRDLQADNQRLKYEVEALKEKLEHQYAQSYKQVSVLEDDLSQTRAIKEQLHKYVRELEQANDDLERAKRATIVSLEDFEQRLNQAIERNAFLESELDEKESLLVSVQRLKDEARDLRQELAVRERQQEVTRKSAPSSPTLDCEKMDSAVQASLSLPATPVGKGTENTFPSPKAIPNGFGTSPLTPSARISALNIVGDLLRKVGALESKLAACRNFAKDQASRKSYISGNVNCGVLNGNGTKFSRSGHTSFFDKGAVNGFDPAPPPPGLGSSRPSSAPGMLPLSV
# B5: U4/U6 small nuclear ribonucleoprotein Prp31 (Homo sapiens), Q8WWY3 (parent)
# chain: MSLADELLADLEEAAEEEEGGSYGEEEEEPAIEDVQEETQLDLSGDSVKTIAKLWDSKMFAEIMMKIEEYISKQAKASEVMGPVEAAPEYRVIVDANNLTVEIENELNIIHKFIRDKYSKRFPELESLVPNALDYIRTVKELGNSLDKCKNNENLQQILTNATIMVVSVTASTTQGQQLSEEELERLEEACDMALELNASKHRIYEYVESRMSFIAPNLSIIIGASTAAKIMGVAGGLTNLSKMPACNIMLLGAQRKTLSGFSSTSVLPHTGYIYHSDIVQSLPPDLRRKAARLVAAKCTLAARVDSFHESTEGKVGYELKDEIERKFDKWQEPPPVKQVKPLPAPLDGQRKKRGGRRYRKMKERLGLTEIRKQANRMSFGEIEEDAYQEDLGFSLGHLGKSGSGRVRQTQVNEATKARISKTLQRTLQKQSVVYGGKSTIRDRSSGTASSVAFTPLQGLEIVNPQAAEKKVAEANQKYFSSMAEFLKVKGEKSGLMST
# partner: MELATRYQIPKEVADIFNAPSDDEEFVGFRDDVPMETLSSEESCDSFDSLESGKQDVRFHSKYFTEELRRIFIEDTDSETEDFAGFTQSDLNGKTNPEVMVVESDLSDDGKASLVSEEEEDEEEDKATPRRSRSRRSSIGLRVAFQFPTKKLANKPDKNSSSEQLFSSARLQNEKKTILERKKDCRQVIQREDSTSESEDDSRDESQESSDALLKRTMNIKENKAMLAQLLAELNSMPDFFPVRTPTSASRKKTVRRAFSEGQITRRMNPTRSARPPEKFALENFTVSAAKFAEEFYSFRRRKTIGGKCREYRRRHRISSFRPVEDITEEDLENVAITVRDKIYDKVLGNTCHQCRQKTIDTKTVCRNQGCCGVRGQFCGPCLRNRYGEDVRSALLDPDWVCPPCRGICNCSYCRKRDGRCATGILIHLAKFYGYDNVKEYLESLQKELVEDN
# B6: Mothers against decapentaplegic homolog 3 (Homo sapiens), P84022 (parent)
# chain: MSSILPFTPPIVKRLLGWKKGEQNGQEEKWCEKAVKSLVKKLKKTGQLDELEKAITTQNVNTKCITIPRSLDGRLQVSHRKGLPHVIYCRLWRWPDLHSHHELRAMELCEFAFNMKKDEVCVNPYHYQRVETPVLPPVLVPRHTEIPAEFPPLDDYSHSIPENTNFPAGIEPQSNIPETPPPGYLSEDGETSDHQMNHSMDAGSPNLSPNPMSPAHNNLDLQPVTYCEPAFWCSISYYELNQRVGETFHASQPSMTVDGFTDPSNSERFCLGLLSNVNRNAAVELTRRHIGRGVRLYYIGGEVFAECLSDSAIFVQSPNCNQRYGWHPATVCKIPPGCNLKIFNNQEFAALLAQSVNQGFEAVYQLTRMCTIRMSFVKGWGAEYRRQTVTSTPCWIELHLNGPLQWLDKVLTQMGSPSIRCSSVS
# partner: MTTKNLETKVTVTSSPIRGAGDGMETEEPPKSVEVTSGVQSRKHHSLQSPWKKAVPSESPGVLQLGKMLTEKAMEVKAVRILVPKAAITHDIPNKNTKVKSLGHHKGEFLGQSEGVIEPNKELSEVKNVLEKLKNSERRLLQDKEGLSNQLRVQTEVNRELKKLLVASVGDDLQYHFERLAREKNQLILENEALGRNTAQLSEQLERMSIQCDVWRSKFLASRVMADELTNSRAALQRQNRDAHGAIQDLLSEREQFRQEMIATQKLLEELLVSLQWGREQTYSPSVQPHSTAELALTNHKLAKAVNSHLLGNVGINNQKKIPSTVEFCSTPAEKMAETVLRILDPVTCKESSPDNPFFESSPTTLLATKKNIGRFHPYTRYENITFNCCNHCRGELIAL
# Variants of: B1
# Conditions: with MID2, Q9UJV3-2
row,effect of a mutation on the interaction,Variant
1,with no effect,C266R

# Variants of: B2
# Conditions: with nlk_human NLK
row,effect of a mutation on the interaction,Variant
1,disrupting interaction strength,A9D
2,with no effect,P248L
3,disrupting interaction strength,R432C
4,disrupting interaction strength,P451L

# Variants of: B3
# Conditions: with nud12_human NUDT12, Q9BQG2
# Chain of nud12_human NUDT12, Q9BQG2 (Q9BQG2 whole entry): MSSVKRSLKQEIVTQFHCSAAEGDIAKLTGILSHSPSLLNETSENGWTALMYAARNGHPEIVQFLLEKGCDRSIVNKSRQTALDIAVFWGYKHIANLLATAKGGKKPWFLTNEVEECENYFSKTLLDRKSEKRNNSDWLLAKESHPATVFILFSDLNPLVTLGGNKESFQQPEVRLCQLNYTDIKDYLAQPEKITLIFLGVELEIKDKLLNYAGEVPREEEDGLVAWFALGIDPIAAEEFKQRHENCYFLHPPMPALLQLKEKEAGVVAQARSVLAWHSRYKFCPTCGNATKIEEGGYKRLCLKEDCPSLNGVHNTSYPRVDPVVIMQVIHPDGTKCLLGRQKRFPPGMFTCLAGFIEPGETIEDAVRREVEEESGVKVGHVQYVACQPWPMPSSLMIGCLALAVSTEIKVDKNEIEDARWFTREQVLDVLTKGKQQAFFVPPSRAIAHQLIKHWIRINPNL
row,effect of a mutation on the interaction,Variant
1,with no effect,I443V

# Variants of: B4
# Conditions: with ndel1_human NDEL1, Q9GZM8
row,effect of a mutation on the interaction,Variant
1,disrupting interaction strength,S644P
2,disrupting interaction strength,S140F
3,with no effect,A264V

# Variants of: B5
# Conditions: with CDCA7L
row,effect of a mutation on the interaction,Variant
1,with no effect,L107V

# Variants of: B6
# Conditions: with go45_human BLZF1, Q9H2G9
row,effect of a mutation on the interaction,Variant
1,with no effect,I170V
